How the values were obtained:
Assay in all cases: ELISA, coated ECD-Fc, antibody 462.963 ng/mL
RON-ECD-Fc = target: T1, RON-ECD-Fc (human, UniProt Q04912 25-957)
T1 construct: extracellular domain; Bought reagent; not shown: Fc part of the bought fusion
T1 sequence (looked up): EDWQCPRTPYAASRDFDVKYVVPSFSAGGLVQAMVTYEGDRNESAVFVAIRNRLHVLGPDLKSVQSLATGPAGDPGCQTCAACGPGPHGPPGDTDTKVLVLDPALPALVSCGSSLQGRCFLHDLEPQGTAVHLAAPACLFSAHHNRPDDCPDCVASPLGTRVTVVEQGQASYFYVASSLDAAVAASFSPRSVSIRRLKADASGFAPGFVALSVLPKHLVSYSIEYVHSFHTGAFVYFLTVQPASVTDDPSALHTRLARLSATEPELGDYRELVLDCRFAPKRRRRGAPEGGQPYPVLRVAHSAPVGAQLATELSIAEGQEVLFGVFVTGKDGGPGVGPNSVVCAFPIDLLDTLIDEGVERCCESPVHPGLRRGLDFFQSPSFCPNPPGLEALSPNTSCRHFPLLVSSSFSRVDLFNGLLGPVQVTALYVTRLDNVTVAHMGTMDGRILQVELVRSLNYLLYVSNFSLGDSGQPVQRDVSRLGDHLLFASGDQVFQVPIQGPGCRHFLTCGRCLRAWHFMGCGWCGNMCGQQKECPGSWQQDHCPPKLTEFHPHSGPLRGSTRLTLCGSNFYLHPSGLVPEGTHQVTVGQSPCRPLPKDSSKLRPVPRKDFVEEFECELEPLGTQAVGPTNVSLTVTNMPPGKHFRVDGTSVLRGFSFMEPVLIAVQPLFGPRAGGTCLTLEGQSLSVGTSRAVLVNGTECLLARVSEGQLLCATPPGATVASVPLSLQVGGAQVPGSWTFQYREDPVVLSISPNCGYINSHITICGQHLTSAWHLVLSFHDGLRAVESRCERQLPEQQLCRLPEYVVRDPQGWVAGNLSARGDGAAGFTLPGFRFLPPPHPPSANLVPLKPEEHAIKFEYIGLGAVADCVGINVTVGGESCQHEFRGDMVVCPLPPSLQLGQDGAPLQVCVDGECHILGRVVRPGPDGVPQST
Experimental: (§1) Wells of 96-well EIA/RIA high binding plates (Costar, #2592) are coated with 100 μL of 1 μg/mL human c-Met extracellular domain (ECD)-Fc-Flis fusion (SEQ ID NO:72), RON-ECD-Fc (R&D Systems, #1947-MS), or PlexinA2-ECD-Fc (Abnova, Taipei, Taiwan #H00005362-P01) in coating buffer (BioFX Labs, # COAT-1000-01) overnight at 4° C. […] After the plates are washed, 100 μL/well of substrate solution (BioFx, #TMBW-1000-01) are added and the plates are incubated for 10 min. at room temperature. 100 μL/well of stop solution (BioFx, # LSTP-1000-01) are added to stop the reaction. The colorimetric signals are developed and read at 450 nm using a SpectraMax 190 plate reader (Molecular Devices, Sunnyvale, Calif.). c-Met antibody binding to c-Met, RON and PlexinA2 ECDs is proportional to color signal production.

PlexinA2-ECD-Fc = target: T2, PlexinA2-ECD-Fc (human, UniProt O75051 35-1237)
T2 construct: extracellular domain; Bought reagent
T2 sequence (looked up): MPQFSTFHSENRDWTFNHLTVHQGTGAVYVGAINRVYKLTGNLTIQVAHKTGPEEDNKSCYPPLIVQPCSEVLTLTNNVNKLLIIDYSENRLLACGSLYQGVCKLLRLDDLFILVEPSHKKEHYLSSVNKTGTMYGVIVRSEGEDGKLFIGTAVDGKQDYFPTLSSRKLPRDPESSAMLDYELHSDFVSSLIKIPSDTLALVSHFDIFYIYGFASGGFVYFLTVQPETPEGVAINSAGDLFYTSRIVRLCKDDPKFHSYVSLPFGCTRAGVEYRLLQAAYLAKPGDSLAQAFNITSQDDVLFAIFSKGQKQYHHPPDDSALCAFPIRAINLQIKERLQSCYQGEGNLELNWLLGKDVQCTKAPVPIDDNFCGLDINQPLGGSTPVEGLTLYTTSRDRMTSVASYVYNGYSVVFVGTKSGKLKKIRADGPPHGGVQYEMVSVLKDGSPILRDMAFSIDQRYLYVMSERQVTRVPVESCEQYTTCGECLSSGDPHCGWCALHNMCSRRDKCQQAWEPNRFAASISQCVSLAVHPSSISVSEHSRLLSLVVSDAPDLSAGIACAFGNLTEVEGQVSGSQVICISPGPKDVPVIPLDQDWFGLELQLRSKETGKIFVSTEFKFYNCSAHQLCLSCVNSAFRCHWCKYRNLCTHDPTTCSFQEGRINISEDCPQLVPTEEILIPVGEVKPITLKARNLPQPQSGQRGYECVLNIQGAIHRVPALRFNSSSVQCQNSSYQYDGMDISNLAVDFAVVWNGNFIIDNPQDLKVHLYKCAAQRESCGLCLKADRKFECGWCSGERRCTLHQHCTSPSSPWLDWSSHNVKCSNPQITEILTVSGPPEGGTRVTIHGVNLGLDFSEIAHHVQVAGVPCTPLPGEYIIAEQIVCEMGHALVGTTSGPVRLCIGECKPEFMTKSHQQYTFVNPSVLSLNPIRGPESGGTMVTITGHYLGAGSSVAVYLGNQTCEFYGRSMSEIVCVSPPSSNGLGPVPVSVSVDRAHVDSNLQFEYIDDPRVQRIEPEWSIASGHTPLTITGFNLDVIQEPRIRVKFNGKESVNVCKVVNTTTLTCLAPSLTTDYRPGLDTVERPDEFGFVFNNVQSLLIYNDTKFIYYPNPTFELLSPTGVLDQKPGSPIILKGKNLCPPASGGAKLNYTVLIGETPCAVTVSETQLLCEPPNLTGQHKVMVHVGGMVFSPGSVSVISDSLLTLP
Experimental: as §1

Human c-Met-Flis-Fc ECD = target: T3, Human c-Met-Flis-Fc ECD (human)
T3 construct: also called human c-Met extracellular domain (ECD)-Fc-Flis fusion; Human cMet-ECD-Fc-Flis
T3 sequence (chain, as listed by the source limits assumed): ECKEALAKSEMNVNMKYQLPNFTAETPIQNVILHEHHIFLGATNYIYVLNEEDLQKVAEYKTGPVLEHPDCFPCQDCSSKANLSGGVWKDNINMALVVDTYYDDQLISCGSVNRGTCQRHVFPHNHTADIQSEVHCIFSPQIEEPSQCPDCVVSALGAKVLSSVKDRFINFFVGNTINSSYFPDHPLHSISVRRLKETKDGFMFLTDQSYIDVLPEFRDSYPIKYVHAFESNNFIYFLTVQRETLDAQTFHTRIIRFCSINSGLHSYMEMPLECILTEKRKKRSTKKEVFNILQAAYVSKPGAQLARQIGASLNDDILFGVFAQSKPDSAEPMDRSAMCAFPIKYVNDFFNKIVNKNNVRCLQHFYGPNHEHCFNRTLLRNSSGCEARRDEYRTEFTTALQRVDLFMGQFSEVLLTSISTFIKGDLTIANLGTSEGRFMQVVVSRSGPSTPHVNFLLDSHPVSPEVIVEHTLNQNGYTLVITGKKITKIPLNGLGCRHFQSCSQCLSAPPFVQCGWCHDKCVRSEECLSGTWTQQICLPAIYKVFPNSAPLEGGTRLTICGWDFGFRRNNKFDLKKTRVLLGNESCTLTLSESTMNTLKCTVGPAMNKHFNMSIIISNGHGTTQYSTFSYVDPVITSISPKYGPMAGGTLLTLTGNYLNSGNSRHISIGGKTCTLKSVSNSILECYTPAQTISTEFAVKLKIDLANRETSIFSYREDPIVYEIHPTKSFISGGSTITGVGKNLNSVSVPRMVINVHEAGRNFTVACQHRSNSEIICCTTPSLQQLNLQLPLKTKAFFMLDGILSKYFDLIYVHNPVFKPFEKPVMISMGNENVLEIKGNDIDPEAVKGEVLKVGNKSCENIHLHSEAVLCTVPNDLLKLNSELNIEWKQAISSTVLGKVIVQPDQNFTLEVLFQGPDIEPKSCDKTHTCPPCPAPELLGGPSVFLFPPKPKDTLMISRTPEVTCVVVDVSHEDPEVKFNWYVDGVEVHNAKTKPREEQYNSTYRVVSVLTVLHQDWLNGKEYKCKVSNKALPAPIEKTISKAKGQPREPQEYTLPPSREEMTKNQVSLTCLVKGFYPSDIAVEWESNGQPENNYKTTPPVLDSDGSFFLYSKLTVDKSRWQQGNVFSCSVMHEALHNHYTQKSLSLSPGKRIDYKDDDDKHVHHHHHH
Experimental: as §1

B1: C8-6 (antibody, human IgG2, kappa, V domains shown)
VH: QVQLVQSGAEVKKPGASVKVSCKASGYTFTDYYMHWVRQAPGQGLEWMGRVNPNRGGTTYNQKFEGRVTMTTDTSTSTAYMELRSLRSDDTAVYYCARTNWLDYWGQGTTVTVSS
VL: DIQMTQSPSSLSASVGDRVTITCSVSSSVSSIYLHWYQQKPGKAPKLLIYSTSNLASGVPSRFSGSGSGTDFTLTISSLQPEDFATYYCIQYSGYPLTFGGGTKVEIKR
notes: Called IgG4, kappa; also called Mab C8-6
- Average A450 nm (RON-ECD-Fc): 0.088 A450 nm
- Average A450 nm (PlexinA2-ECD-Fc): 0.086 A450 nm
- Average A450 nm (Human c-Met-Flis-Fc ECD): 4 A450 nm

Source: patent US20100129369A1 (Eli Lilly, published 2010)
